# In the RNAGym collection of RNA variant scans (doi:10.1021/acssynbio.7b00057):
# B1: Pistol ribozyme (parent)
# chain: GGGUCGUUGUUCCAUAAUCGCGUGGAUAUGGCACGCAAGUUUCUACCGGGCACCGUAAAUGUCCGACUGGAGCCGUUCGGGCGGCUAUAAACAGACCUCAGGCCCGAAGCGUGGCGGCACCUGCCGCCGGUGGUAAAAAAGAUCGGAAGAGCACACGUCU
# Variants of: B1
# Assay: aptazyme ON/OFF ratio, guanine; higher = stronger switching; co-transcriptional cleavage with and without guanine
row,Variant,aptazyme ON/OFF ratio
1,U8C G9C U10A U11A C12U C13U,1.08
2,U8C U10A U11A C12U C13A,1.18
3,U7G U8G G9C,4.59
4,U8G G9U U10G C12G C13G,1.05
5,U7G U8A G9C U10A U11G C12U C13G,1.01
6,U7G U8C G9A U10G C12U C13U,1.26
7,G9U U10C C13G,1.13
8,U7C U8C U11C C12A C13U,1.28
9,U7G G9U U10G U11A,1.23
10,U7C U10A U11A C12A C13U,1.21
11,U7C U8G U11C C12A C13U,1.34
12,U7G U8C G9A U10C U11A C12A C13U,1.14
13,U7A U8A G9C U10A C13U,1.18
14,G9U U11G C12A C13U,1.36
15,U7C U8G G9C U10G U11G C12G C13A,1.1
16,U7C U8G U10A C12G,1.18
17,U7A U8A G9U U10G U11G C12U,1.37
18,U7G U8C U11G C12G C13G,1.11
19,U7G U8G G9U U10A U11A C12U C13U,1.18
20,U8A G9A U10G U11A C12U C13U,0.98
21,U7C U8A U10G C12A C13G,1.07
22,U7A U8A G9A U11C C12G C13G,1.14
23,U7A U8C G9U U10C U11C C13U,1.03
24,U7A U10C U11G C12U C13G,1.31

row,Variant,aptazyme ON/OFF ratio
1,U7G U8C G9C C13U,1.15
2,U8G G9C U10G U11A C12U C13U,1.12
3,U7G G9A U10A U11A C13G,1.09
4,U7C G9A U10C C12G C13U,1.15
5,U8G G9A U10A U11A C12U C13A,1.36
6,U7C U8C G9C U11A C13U,1.08
7,U8A U11G C12U,1.28
8,U7C U8G G9C U10G U11C C12A C13U,1.35
9,U7A U8A U10C U11A C12A C13G,1.18
10,U7G U8G G9C U11C,2.07
11,U7C U8A G9U U10C U11G C12G C13G,1.08
12,U7A U8C G9A U11C C12A,1.21
13,U7A U8G G9U U10A U11G,2.03
14,U7G G9A U10A U11C C12G C13A,1.1
15,U8G G9C U10G U11A,1.07
16,U7C U8C G9U U10G C12G C13G,1.07
17,U7C G9U U10C U11A C12G,1.05
18,U7C U8A G9A U10A U11A C12U C13U,1.13
19,U7A U8A G9A U10G U11C C12A,1.26
20,U7A G9A U11A C12U C13A,1.24
21,U8A C13A,1.24
22,U7A U10C U11G C12G,1.26
23,U7C U8A U11C C13A,1.1
24,U7G U8A U10A U11A C12A,1.08

row,Variant,aptazyme ON/OFF ratio
1,U7A U8C U10A U11C C12A C13U,1.08
2,U8G G9U U11G C12U C13U,1.16
3,U7C U8G U10C U11C C12U C13U,1.1
4,U8C G9C U11C C12U C13G,1.02
5,U7A U8A G9C U10C U11A C12U C13U,1.09
6,U7C U8A G9C U10C U11A C12A C13U,1.04
7,U7G U8G G9U U11C C12U,1.65
8,U7A G9U U10G U11A C13U,1.05
9,U7G U8C U10A U11C C12U,1.03
10,U7C U8G U10G U11C C12U C13G,1.21
11,U7G G9A U11A C12A,1.12
12,U7C U8A G9A U10A C13U,1.26
13,U7A U8G G9A U10C C12A C13G,1.14
14,U7G U8A G9C U10G C12A C13G,1.03
15,U7A U8A G9U U11G C12G C13U,1.1
16,U7C G9A U10C U11C C12U,1.05
17,U8C G9U U10C U11C C13U,1.04
18,U7C U8C U10A U11C C12A C13G,1.16
19,U7A U8C G9C U10C C12G C13A,1.04
20,U7G G9A U11A C13A,1.14
21,U7G U8G G9C U10G U11C C13G,1.08
22,U7A G9U U10A U11C C12U,1.08
23,U8G U10A U11C C13U,1.03
24,U7A G9C U10C C12A C13G,1.04

row,Variant,aptazyme ON/OFF ratio
1,U7G G9C U10C C12U C13U,1.34
2,U7C U8G U10G U11G C12G C13A,1.17
3,U8A G9C U10G U11G C13U,1.23
4,U7G U8A U10C C12A C13G,1.27
5,U7A G9A U10A C12G C13A,1.25
6,U7C U8G G9U U10G U11C C12A,1.18
7,U7C G9C U10C C12G C13G,1.12
8,U7C U8C G9A U10G C12U,1.46
9,U8C C12U C13G,1.39
10,U8C G9C U10C U11C C13U,0.96
11,U7G U8G U11G C13G,1.39
12,U7C G9A U10G U11G C13A,1.24
13,U7C G9C U10G U11G C12A,1.11
14,U7C U8G G9C U10C C12A,1.07
15,U7A U8C G9C U10A U11A C12G C13U,1.07
16,U8A G9U U10C U11A C12A C13A,1.14
17,U7G U8C G9C U10A U11A C12U C13U,1.08
18,U7C G9U U10G U11C C12U C13U,1.19
19,U8G U11C,2.46
20,U7A U8A G9C U10G U11C C12U C13U,1.24
21,U7C G9U U10G U11G C12G,1.14
22,U7C U8A G9U U10C U11A C12A C13G,1.13
23,G9U U11A C13U,1.44
24,U7A U8A G9A U10C U11A C12G,1.1

row,Variant,aptazyme ON/OFF ratio
1,U7G U8G U10G U11A C12G C13U,1.47
2,U10C C12G,1.36
3,U7G G9A U10G U11G C12A C13A,1.03
4,U8A G9C U10G C12U C13G,1.11
5,U7A U8A G9C U11G,1.47
6,G9U U10G U11C C12A C13U,1.23
7,U7C U8A U10C U11G C13A,1.17
8,U7G G9A U10A U11C C13A,1.09
9,U7G U8G G9U U10A U11A C12G,1.19
10,U7A G9C U10G U11G C12G C13A,1.14
11,U10G U11A C12A,1.39
12,U7G U8G U10G U11C C12G C13G,1.25
13,U7G U8G U10C U11G C12G C13G,1.41
14,U7A U8A G9C U10A U11A C12U C13G,1.18
15,U7C G9C U11G C12A,1.01
16,U7G G9C U11A C12U C13U,1.32
17,U7A U8C G9U U10C U11C C12U C13A,1.05
18,U7G U8C G9A U10C U11A C12U C13G,1.06
19,U7A G9U U10C U11A C12G,1.23
20,U7A U8G G9C U10C C12U C13G,1.17
21,U7A U8G G9C U10C C12U C13U,1.38
22,U8G G9U U10A U11C C12U C13A,1.08
23,U7A U8G U10C C12A C13G,1.25
24,U8A G9A U10C U11G C12U C13U,1.22

row,Variant,aptazyme ON/OFF ratio
1,U8A G9C U11C C12G,1.07
2,U7A U8G G9U C13G,1.14
3,U7G G9C U11A C13A,1.41
4,U7A U8A G9A U10C U11G C12U C13G,1.05
5,U7C U8G U10C C12G C13A,1.11
6,U7G U8G U10A U11A C12G C13U,1.13
7,U7A U8G G9C U10G U11C C12G C13G,1.3
8,U7A U8A G9C U11A C12G C13A,1.15
9,G9U U10G U11C C12U C13U,1.18
10,U7C U8C G9U U10G U11G C12A,1.13
11,U7G G9A U11C C13A,1.11
12,U8C U10C C12A,1.34
13,U7G G9C U10A U11G C12G,1.41
14,U7G U8G G9A U10A C12G C13G,1.18
15,U7A U10G U11C,1.04
16,U7A U8A U10G C12U,1.35
17,U7G U8G G9C U10A U11C C12G C13U,1.06
18,U7A U8G G9A U11C C13G,1.09
19,U7C U8A G9A U11G C12G C13U,1.13
20,U7C U8A G9C U10C U11C C12G C13A,1.04
21,U7A U8A G9C U10A C12A,1.2
22,U7G U8A G9C C13G,1.02
23,U8A G9C U10C U11C C12U C13U,1.03
24,U7A U8C G9A U10C U11A C12U,1.25

row,Variant,aptazyme ON/OFF ratio
1,U7A U8C G9A U10C U11A C12A,1.19
2,U7A U8G G9C U10A U11A C13A,1.15
3,U8A G9C C13A,1.11
4,U7C G9A U10A U11A C12U,1.27
5,U8C G9A U10G U11A C12G C13U,1.22
6,U7G U8C G9U U10C U11G C12G C13U,1.08
7,U7A U8C G9U U10A C13U,1.15
8,U8A G9A U10C U11A C12G C13U,1.22
9,U7C U8G G9C U10G C12A C13U,1.26
10,U7A U11G C12G C13U,1.23
11,U7C U8C U10A U11A C12A C13A,1.1
12,U7G G9U U11G C12U,1.2
13,U7G G9C U10G C12A C13U,1.25
14,U8A U10A U11G C12U,1.52
15,U8C G9C U10A C12A C13G,1.15
16,U7C U8C U10A C12U C13A,1.06
17,U7C U8C U10A C12U C13U,1.03
18,U7C G9U U10A U11G C12G C13A,1.1
19,U7A U8C G9U U11C C12U,1.15
20,U7G G9U C12A C13G,1.33
21,U7G U8C G9A U10A U11C C12A C13A,1.13
22,U7A U8C G9A U10G U11C C12A,1.19
23,U7A G9A U10C U11C C12U C13A,1.03
